From article PMC5531659, “Small molecule perturbation of the CAND1-Cullin1-ubiquitin cycle stabilizes p53 and triggers Epstein-Barr virus reactivation” (PLoS Pathogens, 2017)

Target: T1, Cullin 1 (human (endogenous in Mutu I and 293T), UniProt Q13616 1-776)
T1 construct: Cullin 1, human, endogenous protein of Mutu I and 293T cells; Neddylated and deneddylated forms are seen on blots; also called Cul1; Cul 1; source: endogenous, Mutu I lysate; endogenous, 293T lysate
Assay: co-IP; Mutu I total cell lysates (cells treated with DMSO or C60 for 48 hrs); IP with antibody to Cullin 1, CAND1 or IgG on protein A beads in SDS-free lysis buffer (50 mM Tris-HCl pH 7.6, 120 mM NaCl, 0.1% NP40, 1 mM EDTA), overnight 4°C; Western blot for Cullin 1 or CAND1
Settings: partners not purified

T1 sequence (Q13616 whole entry): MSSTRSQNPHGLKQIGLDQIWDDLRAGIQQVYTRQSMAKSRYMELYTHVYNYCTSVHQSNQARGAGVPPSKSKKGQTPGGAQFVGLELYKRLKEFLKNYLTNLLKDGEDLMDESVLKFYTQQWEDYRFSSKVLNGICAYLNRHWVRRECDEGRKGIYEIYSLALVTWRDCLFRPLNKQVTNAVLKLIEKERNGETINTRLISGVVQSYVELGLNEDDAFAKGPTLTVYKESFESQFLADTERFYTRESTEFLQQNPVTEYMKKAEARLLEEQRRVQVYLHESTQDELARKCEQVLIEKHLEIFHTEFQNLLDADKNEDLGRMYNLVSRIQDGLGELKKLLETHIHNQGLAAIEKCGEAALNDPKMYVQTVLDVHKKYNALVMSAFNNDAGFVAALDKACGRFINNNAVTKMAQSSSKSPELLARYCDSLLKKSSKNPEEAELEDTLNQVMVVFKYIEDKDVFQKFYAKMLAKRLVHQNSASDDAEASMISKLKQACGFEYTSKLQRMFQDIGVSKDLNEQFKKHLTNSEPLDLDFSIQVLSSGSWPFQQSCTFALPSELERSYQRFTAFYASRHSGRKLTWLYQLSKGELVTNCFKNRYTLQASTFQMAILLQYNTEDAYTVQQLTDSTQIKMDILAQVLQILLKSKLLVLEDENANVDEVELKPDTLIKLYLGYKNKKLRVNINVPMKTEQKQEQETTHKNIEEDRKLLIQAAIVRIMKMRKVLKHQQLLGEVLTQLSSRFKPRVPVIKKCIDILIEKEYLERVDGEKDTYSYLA

fold decrease of the association in C60-treated against DMSO-treated cells: ~5 fold
B1: Cullin-associated and neddylation-dissociated 1 (CAND1) (natural protein, human (endogenous in Mutu I and 293T), UniProt Q86VP6 1-1230, looked up)
chain: MASASYHISNLLEKMTSSDKDFRFMATNDLMTELQKDSIKLDDDSERKVVKMILKLLEDKNGEVQNLAVKCLGPLVSKVKEYQVETIVDTLCTNMLSDKEQLRDISSIGLKTVIGELPPASSGSALAANVCKKITGRLTSAIAKQEDVSVQLEALDIMADMLSRQGGLLVNFHPSILTCLLPQLTSPRLAVRKRTIIALGHLVMSCGNIVFVDLIEHLLSELSKNDSMSTTRTYIQCIAAISRQAGHRIGEYLEKIIPLVVKFCNVDDDELREYCIQAFESFVRRCPKEVYPHVSTIINICLKYLTYDPNYNYDDEDEDENAMDADGGDDDDQGSDDEYSDDDDMSWKVRRAAAKCLDAVVSTRHEMLPEFYKTVSPALISRFKEREENVKADVFHAYLSLLKQTRPVQSWLCDPDAMEQGETPLTMLQSQVPNIVKALHKQMKEKSVKTRQCCFNMLTELVNVLPGALTQHIPVLVPGIIFSLNDKSSSSNLKIDALSCLYVILCNHSPQVFHPHVQALVPPVVACVGDPFYKITSEALLVTQQLVKVIRPLDQPSSFDATPYIKDLFTCTIKRLKAADIDQEVKERAISCMGQIICNLGDNLGSDLPNTLQIFLERLKNEITRLTTVKALTLIAGSPLKIDLRPVLGEGVPILASFLRKNQRALKLGTLSALDILIKNYSDSLTAAMIDAVLDELPPLISESDMHVSQMAISFLTTLAKVYPSSLSKISGSILNELIGLVRSPLLQGGALSAMLDFFQALVVTGTNNLGYMDLLRMLTGPVYSQSTALTHKQSYYSIAKCVAALTRACPKEGPAVVGQFIQDVKNSRSTDSIRLLALLSLGEVGHHIDLSGQLELKSVILEAFSSPSEEVKSAASYALGSISVGNLPEYLPFVLQEITSQPKRQYLLLHSLKEIISSASVVGLKPYVENIWALLLKHCECAEEGTRNVVAECLGKLTLIDPETLLPRLKGYLISGSSYARSSVVTAVKFTISDHPQPIDPLLKNCIGDFLKTLEDPDLNVRRVALVTFNSAAHNKPSLIRDLLDTVLPHLYNETKVRKELIREVEMGPFKHTVDDGLDIRKAAFECMYTLLDSCLDRLDIFEFLNHVEDGLKDHYDIKMLTFLMLVRLSTLCPSAVLQRLDRLVEPLRATCTTKVKANSVKQEFEKQDELKRSAMRAVAALLTIPEAEKSPLMSEFQSQISSNPELAAIFESIQKDSSSTNLESMDTS
notes: CAND1, human, endogenous protein of Mutu I and 293T cells; also called TIP120A; source: endogenous, Mutu I lysate; endogenous, 293T lysate
